Molecular target: T1, TGFβ1 (R&D Systems)
T1 construct: also called TGFB1
Assay: SPR

T1 sequence (P01137 279-390): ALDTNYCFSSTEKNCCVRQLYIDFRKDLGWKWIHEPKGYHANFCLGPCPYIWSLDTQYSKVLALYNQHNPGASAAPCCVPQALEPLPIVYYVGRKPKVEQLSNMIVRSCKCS

Kd: 263 µM
B1: felHclb 1-1YMN (antibody, V domains shown)
VH: QVLLVQSGAEVRTPGASVKIFCKASGYIFITYYMNWVRQSPAQGLEWMGSIFPASGSTSYAQKFQGRLTLTADTSTNTAYMELSSLRSADTAMYYCARGDGNYALDAMDYWGQGTSVTVSS
VL: EIQMTQSPSSLSASPGDRVTITCRASESVDSYGNSFMHWYQQKPGKVPKLLIYLASNLESGVPSRFSGSGSGTDFTLTISSLEPEDAATYYCQQNNEDPLTFGAGT
notes: also called felHclbH1-1YMN/felHclbK1-1; felHcLb-H1-1MN
